Experimental data reported in patent publication US20140086916A1 (Merck Sharp & Dohme, published 2014).
“And” between values parts separate entries of the source, which are not always exact repeats. Identical values can stand only once. Like-named read-outs stand apart in the source and are kept apart here.

T1: FcγRIIA H (UniProt P12318 34-217, limits assumed)
T1 construct: also called FcgRIIA H
T1 sequence (looked up): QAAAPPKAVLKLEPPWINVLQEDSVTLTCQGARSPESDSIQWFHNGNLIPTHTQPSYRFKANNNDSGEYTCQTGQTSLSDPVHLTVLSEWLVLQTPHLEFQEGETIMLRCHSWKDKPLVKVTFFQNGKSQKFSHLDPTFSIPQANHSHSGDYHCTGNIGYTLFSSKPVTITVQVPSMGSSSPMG

T2: FcγRIIb (Pichia pastoris produced) (UniProt P31994 43-217, limits assumed)
T2 construct: also called FcgRIIB; CD32B
T2 sequence (looked up): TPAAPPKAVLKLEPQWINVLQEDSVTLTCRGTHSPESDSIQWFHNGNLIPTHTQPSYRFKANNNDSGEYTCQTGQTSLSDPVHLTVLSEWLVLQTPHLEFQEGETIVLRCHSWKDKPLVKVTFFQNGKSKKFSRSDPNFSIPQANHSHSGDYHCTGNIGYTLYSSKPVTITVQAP


Columns and labels:
[1] = target: T3, FcγRIIIa-V158 (Pichia pastoris produced) (UniProt P08637 17-208, limits assumed); assay: FcγR affinity assay 'as described in Example 7', n = 3; printed as Affinity (nM) ± STDEV; footnote: values > ~5000 nM mean a poor binder; Table 12 affinity (nM) assay, n = 3; value outside the tested concentration range
T3 construct: also called FcγRIIIA LV; FcgRIIIA LV
Description: (§1) Fcγ receptor binding assays were carried out as described (Shields, et al. (2001) J. Biol. Chem. 276:6591-6604) with minor modifications. High protein binding 96-well plates (Corning Costar) were coated with 100 μL per well of Fcγ receptor solutions in PBS at the following concentrations: 1 μg/mL for both FcγRI (R&D Systems) and FcγRIIa (Pichia pastoris produced), 2 μg/mL for FcγRIIb (P. pastoris produced), 0.8 μg/mL for FcγRIIIa-F158, and 0.4 μg/mL for FcγRIIIa-V158 (both P. pastoris produced). All Pichia pastoris produced receptors were expressed and purified as described (Li, et al. (2006) Nature Biotechnology 24:210-215). Monomeric antibody samples added to the FcγRI plate were serially diluted in assay diluent (1×PBS, 1% BSA, and 0.05% Tween20) and 100 μL, per well was added to the plate. Antibody samples prepared for the remaining receptors require a one hour dimerization step with half molar ratio of goat anti-human IgG F(ab′)2 F(ab′)2 that is conjugated with alkaline phosphatase for detection. […] FcγRI bound sample antibody was detected using the same goat anti-human IgG F(ab′)2 alkaline phosphatase conjugated F(ab′)2. Sample antibody binding was quantified by measuring excitation at 340 nm and emission at 465 nm after 18 hour incubation with SuperPhos, 4-MUP Fluorescence AP Substrate Detection System (Virolabs).

[2] = target: T4, FcγRIIIa-F158 (Pichia pastoris produced) (UniProt P08637 17-208, limits assumed); assay: as above
T4 construct: also called FcγRIIIA LF; FcgRIIIA LF
Description: as §1

[3] = target: T1, FcγRIIA H; assay: fold change of the Table 12 affinities (arrow not given)
Description: as §1

[4] = target: T2, FcγRIIb (Pichia pastoris produced); assay: ELISA-type plate assay, FcγR coated, antibody dimerized with AP-conjugated goat anti-human IgG F(ab')2, RFU readout
Description: (§2) Fcγ receptor binding assays were carried out as described (Shields, et al. (2001) J. Biol. Chem. 276:6591-6604) with minor modifications. High protein binding 96-well plates (Corning Costar) were coated with 100 μL per well of Fcγ receptor solutions in PBS at the following concentrations: 1 μg/mL for both FcγRI (R&D Systems) and FcγRIIa (Pichia pastoris produced), 2 μg/mL for FcγRIIb (P. pastoris produced), 0.8 μg/mL for FcγRIIIa-F158, and 0.4 μg/mL for FcγRIIIa-V158 (both P. pastoris produced). All Pichia pastoris produced receptors were expressed and purified as described (Li, et al. (2006) Nature Biotechnology 24:210-215). Monomeric antibody samples added to the FcγRI plate were serially diluted in assay diluent (1×PBS, 1% BSA, and 0.05% Tween20) and 100 μL, per well was added to the plate. Antibody samples prepared for the remaining receptors require a one hour dimerization step with half molar ratio of goat anti-human IgG F(ab′)2 F(ab′)2 that is conjugated with alkaline phosphatase for detection. These dimerized F(ab′)2/antibody complexes were also serially diluted and 100 μL per well were added to the remaining receptor plates and all plates were incubated for one hour at room temperature. FcγRI bound sample antibody was detected using the same goat anti-human IgG F(ab′)2 alkaline phosphatase conjugated F(ab′)2. Sample antibody binding was quantified by measuring excitation at 340 nm and emission at 465 nm after 18 hour incubation with SuperPhos, 4-MUP Fluorescence AP Substrate Detection System (Virolabs).

[5] = target: T2, FcγRIIb (Pichia pastoris produced); assay: as above; remark: listed apart in the source
Description: as §2

[6] = target: T2, FcγRIIb (Pichia pastoris produced); assay: FcγR affinity assay 'as described in Example 7', n = 3; printed as Affinity (nM) ± STDEV
Description: as §2

[7] = target: T5, wild-type human PCSK9 (human, UniProt Q8NBP7 31-692, limits assumed); assay: SPR (Biacore T100), average KD of the six YGLY25267 runs
T5 construct: also called PCSK9 antigen
Description: The CM5 chip was immobilized on all flowcells with mouse anti-human IgG (Fc specific) according to the Biacore Human Antibody Capture Kit (Cat# BR-1008-39) to ˜7000RU. Anti-PCSK9 antibodies were captured on the chip to ˜500RU followed by analyte injections of wild-type human PCSK9 from 64.1 nM to 2.0 nM. Each flowcell was regenerated between each analyte injection with 3M MgCl for 40 seconds at 10 uL/min. Data was analyzed with Biacore T100 Evaluation Software using the 1:1 binding model using at least 5 point concentration range sensogram.

[8] = target: T2, FcγRIIb (Pichia pastoris produced); assay: fold change of the Table 12 affinities
Description: as §2

[9] = target: T1, FcγRIIA H; assay: FcγR affinity assay 'as described in Example 7', n = 3; printed as Affinity (nM) ± STDEV; footnote: values > ~5000 nM mean a poor binder
Description: as §2

[10] = target: T2, FcγRIIb (Pichia pastoris produced); assay: ELISA-type plate assay, FcγR coated, antibody dimerized with AP-conjugated goat anti-human IgG F(ab')2, RFU readout; remark: listed apart in the source
Description: as §2

[11] = target: T2, FcγRIIb (Pichia pastoris produced); assay: as above; remark: listed apart in the source
Description: as §2

[12] = target: T3, FcγRIIIa-V158 (Pichia pastoris produced); assay: fold change of the Table 12 affinities; Table 13 fold change computed from the Table 12 affinities
Description: as §1

[13] = target: T4, FcγRIIIa-F158 (Pichia pastoris produced); assay: fold change of the Table 12 affinities (arrow not given); Table 13 fold change computed from the Table 12 affinities
Description: as §1

[14] = target: T4, FcγRIIIa-F158 (Pichia pastoris produced); assay: fold change of the Table 12 affinities
Description: as §2

[15] = target: T1, FcγRIIA H; assay: fold change of the Table 12 affinities
Description: as §2

[16] = target: T3, FcγRIIIa-V158 (Pichia pastoris produced); assay: FcγR affinity assay 'as described in Example 7', n = 3; printed as Affinity (nM) ± STDEV; footnote: values > ~5000 nM mean a poor binder
Description: as §2

[17] = target: T4, FcγRIIIa-F158 (Pichia pastoris produced); assay: as above
Description: as §2

T4 sequence (P08637 17-208 limits assumed): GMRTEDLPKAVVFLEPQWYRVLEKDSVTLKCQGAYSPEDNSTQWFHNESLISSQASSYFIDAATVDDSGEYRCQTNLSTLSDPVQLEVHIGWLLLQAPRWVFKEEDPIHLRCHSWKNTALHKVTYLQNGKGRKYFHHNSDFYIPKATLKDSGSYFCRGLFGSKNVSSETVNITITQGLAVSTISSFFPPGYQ
T3 sequence (P08637 17-208 F176V limits assumed): as the sequence (P08637 17-208 limits assumed) above, with F160V counted along it

| Binder | Kd [1] | Kd [2] | fold change in affinity vs 1F11 IgG1 GS5.0 [3] | EC50 (read off the curve) [4] | EC50 (read off the curve) [5] | Kd [6] | Kd [7] | fold change in affinity vs 1F11 IgG1 GS5.0 [8] | Kd [9] | EC50 (read off the curve) [10] | EC50 (read off the curve) [11] | fold change in affinity vs 1F11 IgG1 GS5.0 [12] | fold change in affinity vs 1F11 IgG1 GS5.0 [13] | fold change in affinity vs hFcDM [8] | fold change in affinity vs hFcDM [14] | fold change in affinity vs hFcDM [15] | Kd [16] | Kd [17] |
| --- | --- | --- | --- | --- | --- | --- | --- | --- | --- | --- | --- | --- | --- | --- | --- | --- | --- | --- |
| 1F11 IgG1 F243A/V264A/S267E/L328F quadruple mutein anti-PCSK9 antibody (antibody, Produced in Pichia pastoris GFI6.0; The strains give the same polypeptide with different N-glycan profiles; also called 1F11 QM; YGLY25265) heavy: QVQLVQSGAEVKKPGASVKVSCKVSGYTFTDYYMNWVRQAPGQGLEWIGDINPNNGGAIYNQKFKGRATLTVDKSTSTAYMELRSLRSDDTAVYYCTSGIITEIAEDFWGQGTLVTVSSASTKGPSVFPLAPSSKSTSGGTAALGCLVKDYFPEPVTVSWNSGALTSGVHTFPAVLQSSGLYSLSSVVTVPSSSLGTQTYICNVNHKPSNTKVDKKVEPKSCDKTHTCPPCPAPELLGGPSVFLAPPKPKDTLMISRTPEVTCVVADVEHEDPEVKFNWYVDGVEVHNAKTKPREEQYNSTYRVVSVLTVLHQDWLNGKEYKCKVSNKAFPAPIEKTISKAKGQPREPQVYTLPPSRDELTKNQVSLTCLVKGFYPSDIAVEWESNGQPENNYKTTPPVLDSDGSFFLYSKLTVDKSRWQQGNVFSCSVMHEALHNHYTQKSLSLSPG light: DIQMTQSPSSLSASVGDRVTITCKASQNVGTNVVWYQQKPGKAPKALIHSASYRYSGVPSRFSGSGSGTDFTLTISSLQPEDFATYYCQQYKTYPYTFGQGTKVEIKRTVAAPSVFIFPPSDEQLKSGTASVVCLLNNFYPREAKVQWKVDNALQSGNSQESVTEQDSKDSTYSLSSTLTLSKADYEKHKVYACEVTHQGLSSPVTKSFNRGEC | > 5 µM | > 5 µM | 9 fold | ~0.03 µg/mL | ~0.04 µg/mL and ~0.1 µg/mL | 0.029 µM | 0.00364 µM | 19 fold | 8.15 µM | ~0.04 µg/mL | ~0.05 µg/mL | > 10000 fold | 103 fold | – | – | – | – | – |
| human IgG1 Fc ("hFc") QM (F243A/V264A/S267E/L328F quadruple mutein Fc domain) (other, Fc fragment of human IgG1 with hinge, produced in Pichia pastoris GFI6.0 host YGLY22834; also called YGLY28722; YGLY28725) AEPKSCDKTHTCPPCPAPELLGGPSVFLAPPKPKDTLMISRTPEVTCVVADVEHEDPEVKFNWYVDGVEVHNAKTKPREEQYNSTYRVVSVLTVLHQDWLNGKEYKCKVSNKAFPAPIEKTISKAKGQPREPQVYTLPPSRDELTKNQVSLTCLVKGFYPSDIAVEWESNGQPENNYKTTPPVLDSDGSFFLYSKLTVDKSRWQQGNVFSCSVMHEALHNHYTQKSLSLSPGK | – | – | – | – | – | 0.028 µM | – | – | 9.13 µM | – | – | – | – | 100 fold | 9 fold | 1 fold | 6.4 µM | 30.6 µM |
